The values below come from patent EP0459978B1, “CLASS I MHC MODULATION OF SURFACE RECEPTOR ACTIVITY” (THE REGENTS OF THE UNIVERSITY OF CALIFORNIA, priority 1989, dated 1997).

This series can be described thus: Peptide depletion (degradation or adsorption) during the experimental period, by HPLC and 125I-labeled peptide. The format is physicochemical. As to conditions: HPLC and 125I-labeled peptide; concentrations above 0.1 )M.

For the substance “dynorphin A: control peptide purchased from Peninsula Laboratories”, the “depletion (degradation or adsorption) during the experimental period” value is reported as “No significant depletion”.
